Source: paper PMC4342785 (Nature, 2015)

Biological target: T1, mouse core RAG1 (384–1008aa) (mouse, UniProt P15919 384-1008)
T1 sequence (looked up): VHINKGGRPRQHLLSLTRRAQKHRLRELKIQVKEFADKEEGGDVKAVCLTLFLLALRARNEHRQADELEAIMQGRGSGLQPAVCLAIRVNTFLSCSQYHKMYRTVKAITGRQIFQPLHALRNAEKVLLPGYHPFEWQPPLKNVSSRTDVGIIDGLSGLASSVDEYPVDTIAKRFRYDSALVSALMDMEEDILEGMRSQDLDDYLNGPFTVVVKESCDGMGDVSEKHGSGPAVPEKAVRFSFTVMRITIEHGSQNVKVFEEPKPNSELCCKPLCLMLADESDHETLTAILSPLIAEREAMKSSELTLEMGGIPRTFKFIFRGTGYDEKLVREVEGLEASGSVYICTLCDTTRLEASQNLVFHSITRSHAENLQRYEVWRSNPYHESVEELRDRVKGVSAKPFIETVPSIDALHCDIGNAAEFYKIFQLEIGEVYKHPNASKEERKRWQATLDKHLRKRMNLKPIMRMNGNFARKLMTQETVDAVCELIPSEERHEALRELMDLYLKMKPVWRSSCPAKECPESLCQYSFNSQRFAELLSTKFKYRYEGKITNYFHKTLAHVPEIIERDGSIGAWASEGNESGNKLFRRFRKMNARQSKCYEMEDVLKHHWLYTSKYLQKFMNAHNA
Assay: crystal structure

binding result: binds
B1: mouse core RAG2 (1–387aa), M1V (domain or fragment, UniProt P21784 1-387, looked up)
chain: VSLQMVTVGHNIALIQPGFSLMNFDGQVFFFGQKGWPKRSCPTGVFHFDIKQNHLKLKPAIFSKDSCYLPPLRYPATCSYKGSIDSDKHQYIIHGGKTPNNELSDKIYIMSVACKNNKKVTFRCTEKDLVGDVPEPRYGHSIDVVYSRGKSMGVLFGGRSYMPSTQRTTEKWNSVADCLPHVFLIDFEFGCATSYILPELQDGLSFHVSIARNDTVYILGGHSLASNIRPANLYRIRVDLPLGTPAVNCTVLPGGISVSSAILTQTNNDEFVIVGGYQLENQKRMVCSLVSLGDNTIEISEMETPDWTSDIKHSKIWFGSNMGNGTIFLGIPGDNKQAMSEAFYFYTLRCSEEDLSEDQKIVSNSQTSTEDPGDSTPFEDSEEFCFS
